Values of other authors in patent publication US8623606B2, “Screening method for GPCR ligands” (Max-Planck-Gesellschaft zur Forderung der wissenschaften …, priority 2006, dated 2014).
Like-named read-outs stand apart in the source and are kept apart here.

Key:
CRF R1 = settings: FIG. 2A legend
CRF1 receptor [1] = target: T1, CRF1 receptor (Homo sapiens, UniProt P34998)
T1 sequence (P34998 24-415): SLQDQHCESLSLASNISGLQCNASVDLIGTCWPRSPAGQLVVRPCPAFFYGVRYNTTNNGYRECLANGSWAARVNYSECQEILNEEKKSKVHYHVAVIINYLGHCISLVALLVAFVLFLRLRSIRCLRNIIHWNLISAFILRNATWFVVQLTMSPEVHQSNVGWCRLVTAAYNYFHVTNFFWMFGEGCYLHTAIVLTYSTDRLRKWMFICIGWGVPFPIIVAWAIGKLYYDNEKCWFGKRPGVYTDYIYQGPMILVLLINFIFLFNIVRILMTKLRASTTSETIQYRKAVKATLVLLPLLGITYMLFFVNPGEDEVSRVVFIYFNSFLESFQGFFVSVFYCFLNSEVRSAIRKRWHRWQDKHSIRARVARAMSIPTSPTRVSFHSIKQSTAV

CRF1 receptor [2] = target: T1, CRF1 receptor; remark: listed apart in the source

Ucn1-19: N-terminal activation domain from the CRF R1 agonist rat urocortin (DDPPLSIDLTFHLLRTLLEIE; listed as Homo sapiens)
CRF R1 activation potency (testosterone production) (CRF R1): Neither of the isolated domains is active alone

consensus peptide derived from the C-terminus of CRF R1 antagonists: consensus peptide derived from the C-terminus of CRF R1 antagonists (NRKLLDEV; listed as Homo sapiens)
CRF R1 activation potency (testosterone production) (CRF R1): Neither of the isolated domains is active alone

Ac-E*AEK*NRLXDII-CONH2 [12 amino acid analog of astressin]
influence on the J-domain signaling (CRF1 receptor [1]): devoid of any detectable influence
binding to the CRF1 receptor (in words) (CRF1 receptor [2]; FIG. 2B legend): binds tightly
Kd (CRF1 receptor [2]; as reported in Yamada et al., read-out: binding constant to the N-terminal domain): 5 nM
Kd (CRF1 receptor [2]; literature value, read-out: affinity of binding to the CRF1 receptor): 5.5 nM
